Results as given in patent publication US7799901B2, “Modulators of the function of FAS receptors and other proteins” (Yeda Research and Development Co. Ltd., priority 1995, dated 2010).

T1: FAS-R-p55-R chimera (p55-FAS) (Homo sapiens, UniProt P19438+P25445)
T1 construct: transmembrane and intracellular domain of FAS-R (amino acids 153-319); expressed in transfected cells; host or cells: HeLa HtTA-1
T1 sequence (P19438+P25445 with tags, fused parts or gaps): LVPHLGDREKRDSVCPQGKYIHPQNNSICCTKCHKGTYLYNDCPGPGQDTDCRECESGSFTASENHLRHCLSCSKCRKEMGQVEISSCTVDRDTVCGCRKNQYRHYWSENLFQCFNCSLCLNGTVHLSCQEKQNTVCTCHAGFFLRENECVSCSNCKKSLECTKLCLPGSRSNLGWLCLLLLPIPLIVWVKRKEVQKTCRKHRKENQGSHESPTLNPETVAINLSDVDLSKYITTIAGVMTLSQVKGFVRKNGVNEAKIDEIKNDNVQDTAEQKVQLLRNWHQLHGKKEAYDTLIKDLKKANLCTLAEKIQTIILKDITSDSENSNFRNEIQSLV

T2: intracellular domain of FAS-R (Homo sapiens, UniProt P25445)
T2 construct: expressed in transfected cells; host or cells: HeLa HtTA-1
T2 sequence (P25445 26-335): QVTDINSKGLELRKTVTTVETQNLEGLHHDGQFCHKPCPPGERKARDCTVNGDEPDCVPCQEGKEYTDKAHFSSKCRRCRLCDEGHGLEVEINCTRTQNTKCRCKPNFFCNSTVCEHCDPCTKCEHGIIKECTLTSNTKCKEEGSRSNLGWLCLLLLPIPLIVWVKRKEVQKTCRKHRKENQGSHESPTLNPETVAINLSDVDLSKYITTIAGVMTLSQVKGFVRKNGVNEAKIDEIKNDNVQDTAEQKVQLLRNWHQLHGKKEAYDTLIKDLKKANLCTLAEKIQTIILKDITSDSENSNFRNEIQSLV


Tests used:
[1] = target: CED3/ICE homology region in MACHα1 (Homo sapiens, UniProt Q14790); conditions: 5 mM; bacterial extracts; listed as iodacetic acid
[2] = target: T1, FAS-R-p55-R chimera (p55-FAS); test: Cross immunoprecipitation with co-expressed p55-FAS chimera in HeLa cells; format: binding
Procedure: (§1) MORT-1, N-linked to the FLAG octapeptide, (FLAG-MORT-1; Eastman Kodak, New Haven, Conn., USA), Fas-IC, FAS-R, p55-R, a chimera comprised of the extracellular domain of p55-R (amino acids 1-168) fused to the transmembrane and intracellular domain of FAS-R (amino acids 153-319), and the luciferase cDNA which serves as a control, were expressed in HeLa cells. Expression was carried out using a tetracycline-controlled expression vector, in a HeLa cell clone (HtTA-1) that expresses a tetracycline-controlled transactivator (Gossen and Bujard, 1992; see also Boldin et al, 1995). Metabolic labeling with [^35S]methionine and [^35S] cysteine (DUPONT, Wilmington, Del., USA and Amersham, Buckinghamshire, England) was performed 18 hours after transfection, by a further 4 h incubation at 37° C. in Dulbecco's modified Eagle's medium lacking methionine and cysteine, but supplemented with 2% dialyzed fetal calf serum. The cells were then lysed in RIPA buffer (10 mM Tris-HCl, pH 7.5, 150 mM NaCl, 1 NP-40, 1% deoxycholate, 0.1% SDS and 1 mM EDTA) and the lysate was precleared by incubation with irrelevant rabbit antiserum (3 μl/ml) and Protein G Sepharose beads (Pharmacia, Uppsala, Sweden; 60 μl/ml). […]

[3] = system: GST-Fas-IC fusion protein; test: In vitro binding to GST-Fas-IC on glutathione beads; design: species or system human or mouse; conditions: [35S]-labeled protein from HeLa extracts; SDS-PAGE, autoradiography
Procedure: Glutathione S-transferase (GST) fusions with the wild type or a mutated Fas-IC were produced and adsorbed to glutathione-agarose beads; see Boldin et al, 1995; Ausubel et al, 1994; Frangioni and Neel, 1993). Binding of metabolically-labeled FLAG-MORT-1 fusion protein to GST-Fas-IC was assessed by incubating the beads for 2 h at 4° C. with extracts of HeLa cells, metabolically labeled with [^35S]methionine (60 μCi/ml), that express FLAG-MORT-1. The extracts were prepared in a buffer containing 50 mM Tris-HCl, pH 7.5, 150 mM NaCl, 0.1% NP-40; 1 mM dithioteitol, 1 mM EDTA, 1 mM phenylmethylsulfonyl fluoride, 20 μg/ml Aprotonin, […] Leupeptin, 10 mM-sodium fluoride and 0.1 mM sodium vanadate (1 ml per 5×10^5 cells).
Expression of MORT-1 molecules fused at their N terminus with the. FLAG octapeptide (FLAG-MORT-1) yielded in HeLa cells proteins of four distinct sizes—about […], 28, 32, and 34 kD. […] Thus, the in vitro interaction was evaluated by assessing, by autoradiography following SDS-PAGE, the binding of [35] metabolically labeled MORT-1, produced in transfected HeLa cells as a fusion with the FLAG octapeptide (FLAG-MORT-1), to GST, GST fusion with the human or mouse Fas-IC (GST-huFas-IC, GST-mFas-IC) or to GST fusion with Fas-IC containing a Ile to Ala replacement mutation at position 225.

[4] = target: T2, intracellular domain of FAS-R; test: Cross immunoprecipitation with co-expressed FAS-R in HeLa cells; format: binding
Procedure: as §1

CED3/ICE homology region in MACHα1, sequence (Q14790 217-479): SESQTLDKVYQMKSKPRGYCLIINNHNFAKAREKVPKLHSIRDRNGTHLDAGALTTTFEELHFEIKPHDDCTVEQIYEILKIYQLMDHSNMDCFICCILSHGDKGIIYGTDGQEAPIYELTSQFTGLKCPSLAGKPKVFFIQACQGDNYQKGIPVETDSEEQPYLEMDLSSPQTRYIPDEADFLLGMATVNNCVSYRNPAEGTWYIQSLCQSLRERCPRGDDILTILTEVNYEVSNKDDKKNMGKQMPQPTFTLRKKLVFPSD

| binding to intracellular domain of FAS-R-p55-R chimera when co-expressed in HeLa cells [2] | in vitro binding to GST-Fas-IC [3] | binding to intracellular domain of FAS-R when co-expressed in HeLa cells [4] | Molecule | effect on cleavage of Ac-DEVD-AMC by the MACHα1 CED3/ICE homology region [1] |
| --- | --- | --- | --- | --- |
|  |  |  | O=C(O)CI [iodoacetic acid] | blocked |
| capable of binding | showed ability to bind | capable of binding | FLAG-MORT-1: MORT-1, N-linked to the FLAG octapeptide (protein, left off: small tags and cut ends, MORT-1, N-linked to the FLAG octapeptide) VNQAPECRFGGGILGPLGKRRDLARASEPRTEGARRAGPQPRPLADPAMDPFLVLLHSVSSSLSSSELTELKFLCLGRVVKRKLERVQSGLDLFSMLLEQNDLEPGHTELLRELLASLRRHDLLRRVDDFEAGAAAGAAPGEEDLCAAFNVICDNVGKDWRRLARQLKVSDTKIDSIEDRYPRNLTERVRESLRIWKNTEKENATVAHLVGALRSCQMNLVADLVQEVQQARDLQNRSGAMSPMSWNSDASTSEAS |  |
